Assay results reported in the supplement of paper PMC10724198.
± gives the standard deviation of the averaged measurements.
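Note: PSI is a weighted mean of sequencing reads over stability bins, variants kept only with over 10 reads, mCherry proximal and sfGFP distal, peptide attached via GGGS linker.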

Each sequence was assayed on Saccharomyces cerevisiae (assay: protein stability index of tFT-peptide fusion (C-terminal peptide) (PSI (0-1 scale)); higher = more stable (slower turnover)). Details: genetic background: wild type; temperature: 30 C.
PPPNLSSGVPFI was tested, and the protein stability index was 0.7051 ± 0.0025.
GPSWYGKNSLHK showed a protein stability index of 0.686 ± 0.051.
In the case of DGGGGGGGVAGD, the protein stability index is reported as 0.708 ± 0.051.
Work on SLFRVAFLYVQV yielded a protein stability index of 0.5406 ± 0.0018.
SAFLRRFLFFQW gave a protein stability index of 0.572 ± 0.035.
Work on PPRPPPNTPLPA yielded a protein stability index of 0.725 ± 0.035.
For SLAPPVPPPPLH, the protein stability index was 0.67 ± 0.026.
With SRPLVPSPPSPV the protein stability index was 0.663 ± 0.02.
PPTFPHLPHSWP showed a protein stability index of 0.792 ± 0.018.
RRLRRALPPQLA showed a protein stability index of 0.577 ± 0.037.
GPGVGYGRWRGG showed a protein stability index of 0.667 ± 0.094.
For EIGWEGLAGRGG, the protein stability index was 0.754 ± 0.029.
For RRRGREVCRCTE, the protein stability index was 0.716 ± 0.046.
PPRGDPRAYLPP gave a protein stability index of 0.654 ± 0.011.
Work on RIWKKKRYNEKS yielded a protein stability index of 0.681 ± 0.12.
Work on DVELTGCCLSRT yielded a protein stability index of 0.696 ± 0.026.
With HLGRRSGAQGLF the protein stability index was 0.699 ± 0.06.
Work on FPLSPPAPPLTP yielded a protein stability index of 0.702 ± 0.013.
Sequence RFLAHLVRPFCG has a protein stability index of 0.722 ± 0.039.
CAEFLFSTVLYP showed a protein stability index of 0.735 ± 0.049.
Sequence KKIEKENKKEKF has a protein stability index of 0.611 ± 0.056.
PPNLLPPLSPSL was tested, and the protein stability index was 0.678 ± 0.08.
For VHESARAAGSDW, the protein stability index was 0.647 ± 0.062.
For SPPSPLRPPPPS, the protein stability index was 0.7 ± 0.01.
RVGPLLLTAGPR was tested, and the protein stability index was 0.644 ± 0.029.
With KKKEKKKKNKLK the protein stability index was 0.74 ± 0.019.
LPASAPFPLSPP was tested, and the protein stability index was 0.7 ± 0.035.
Sequence LPPIAFPPSFSP has a protein stability index of 0.69983 ± 0.00059.
For PSPPPAPAPLLA, the protein stability index was 0.667 ± 0.032.
For WGWGWWEMVGRT, the protein stability index was 0.674 ± 0.0039.
Sequence PSSPPTPLPPRS has a protein stability index of 0.663 ± 0.077.
In the case of LSLCYCALTSSN, the protein stability index is reported as 0.541 ± 0.0097.
GKLGSSPQLRYY showed a protein stability index of 0.704 ± 0.046.
Sequence LPTSTRRGGSHG has a protein stability index of 0.6911 ± 0.0055.
CRFPFRILHPPF was tested, and the protein stability index was 0.68957 ± 0.00018.
In the case of GWWGCGGWGFVG, the protein stability index is reported as 0.624 ± 0.05.
GPAGGGRLECGV gave a protein stability index of 0.7157 ± 0.0069.
GEGSQTGSLIPL was tested, and the protein stability index was 0.71 ± 0.031.
For VSKYNGIKRRNG, the protein stability index was 0.6 ± 0.0085.
GGGVSFWLGAVA showed a protein stability index of 0.647 ± 0.0081.
In the case of VHGAQICCIPWY, the protein stability index is reported as 0.699 ± 0.063.
GGVVGASMSGTP gave a protein stability index of 0.683 ± 0.023.
With RRCTLVERAWRW the protein stability index was 0.628 ± 0.039.
In the case of YESIVLYPEMYL, the protein stability index is reported as 0.714 ± 0.2.
PPARIFRSLPTP was tested, and the protein stability index was 0.711 ± 0.047.
LRSMLRCPSPLS gave a protein stability index of 0.759 ± 0.031.
For PPPPRPPPVPPF, the protein stability index was 0.61 ± 0.048.
Work on VSHKETNKIKPN yielded a protein stability index of 0.701 ± 0.097.
In the case of IRKNWQRIGETA, the protein stability index is reported as 0.662 ± 0.026.
With YLVSRRSGCDLE the protein stability index was 0.683 ± 0.051.
Sequence CCCELNTEIVQT has a protein stability index of 0.682 ± 0.059.
With PRAGPPPPPPSP the protein stability index was 0.734 ± 0.028.
Work on VLLRSTRRPLPC yielded a protein stability index of 0.657 ± 0.036.
Sequence LFVEFFACRSFN has a protein stability index of 0.722 ± 0.011.
PPPPPTFPVLTS gave a protein stability index of 0.603 ± 0.046.
YSPFCPSASPWA gave a protein stability index of 0.712 ± 0.023.
AGARGVAGWLPR showed a protein stability index of 0.684 ± 0.041.
QGERHCCILVST gave a protein stability index of 0.555 ± 0.025.
Work on VRHSCRTTTPPS yielded a protein stability index of 0.708 ± 0.009.
In the case of GHYPCLPFLFPL, the protein stability index is reported as 0.707 ± 0.087.
For TRFLWYFVPTTK, the protein stability index was 0.704 ± 0.071.
With VGNGGVWSVGRG the protein stability index was 0.685 ± 0.038.
GSGWRSRRAPGP showed a protein stability index of 0.747 ± 0.047.
TPLLAALRPTTS was tested, and the protein stability index was 0.764 ± 0.07.
PVPSPLLPSFSL showed a protein stability index of 0.715 ± 0.064.
DDSSLLMLNCLE gave a protein stability index of 0.71964 ± 0.00048.
With VVARFDTILLWS the protein stability index was 0.608 ± 0.06.
For RVLGEGKCCIRV, the protein stability index was 0.6063 ± 0.0056.
Sequence SLHVSSLPYALQ has a protein stability index of 0.662 ± 0.082.
With RMKGTNKEGKKK the protein stability index was 0.693 ± 0.054.
In the case of VGSLGVGTFRRD, the protein stability index is reported as 0.692 ± 0.011.
With SLSDKRATKGED the protein stability index was 0.65 ± 0.018.
With RREGGRQRGGSG the protein stability index was 0.67 ± 0.063.
DGTICAITYLTS was tested, and the protein stability index was 0.6653 ± 0.0017.
DLGLSYCGYAML gave a protein stability index of 0.683 ± 0.064.
Work on TPWGPGAAAAPP yielded a protein stability index of 0.684 ± 0.043.
GRGGLGWGEWDR was tested, and the protein stability index was 0.699 ± 0.03.
In the case of PLLLPLFSSSPP, the protein stability index is reported as 0.777 ± 0.085.
Sequence QCQVKGIFKKVF has a protein stability index of 0.687 ± 0.0076.
VGGWGGVSLGGR showed a protein stability index of 0.721 ± 0.1.
AVRRRGGLSVGV was tested, and the protein stability index was 0.654 ± 0.036.
In the case of AQTASQSPYRVG, the protein stability index is reported as 0.731 ± 0.017.
CFSPAAPLLLPG was tested, and the protein stability index was 0.689 ± 0.025.
Work on YVSHLLMVGRFI yielded a protein stability index of 0.616 ± 0.01.
Sequence LLLPPPLSASSS has a protein stability index of 0.633 ± 0.028.
SPPPLPLPPPAP was tested, and the protein stability index was 0.695 ± 0.013.
Sequence LVICPRVLRDFR has a protein stability index of 0.663 ± 0.05.
With EVGGSVGTIVGS the protein stability index was 0.702 ± 0.11.
TGSRGPHRKPPD showed a protein stability index of 0.691 ± 0.0077.
With PPLPAPPAPAVQ the protein stability index was 0.6991 ± 0.0027.
In the case of VLPPTPLTPVLP, the protein stability index is reported as 0.676 ± 0.055.
Sequence LTSPPPPPARVP has a protein stability index of 0.739 ± 0.11.
With PPRASPRMPAGC the protein stability index was 0.71506 ± 3.7e-05.
Sequence TSPPPLPLPSLR has a protein stability index of 0.686 ± 0.013.
With LLPPPPPPPSTP the protein stability index was 0.772 ± 0.0067.
Sequence PSWEPLPLPAVL has a protein stability index of 0.707 ± 0.018.
AGVCVAVGGGGF was tested, and the protein stability index was 0.676 ± 0.03.
In the case of PSPPTYPSFPSR, the protein stability index is reported as 0.724 ± 0.041.
Work on SPAPPVPLHPPH yielded a protein stability index of 0.714 ± 0.089.
QRGDDFHDTSPA was tested, and the protein stability index was 0.708 ± 0.0082.
For TIETKVNSKDDS, the protein stability index was 0.735 ± 0.031.
